Test system: T1, O=[N+]([O-])c1ccc(O[C@@H]2O[C@H](CO)[C@@H](O)[C@H](O)[C@H]2O)cc1
T1 construct: full-length GH1 enzyme, no signal peptide; gene 1347 bp (448 residues deduced), 52 kDa; pET22b in E. coli BL21 (DE3), heat treatment and Ni-NTA purified
Test: p-nitrophenol release at A410, Lineweaver-Burk
Type: biochemical, Anoxybacillus flavithermus subsp. yunnanensis
Conditions: Na2HPO4-citric acid buffer pH 7.0, 60 °C, no added sugar

Question: With “BglP (Bglp) (Anoxybacillus flavithermus subsp. yunnanensis)” as the substance, how does the Km read?
Answer: 290 ± 10 µM
